The text below walks through data of US20240294593A1 (Genentech, published 2024).

B1: H1.135_L1 (antibody, V domains shown)
VH: EVQLVESGGGLVQPGGSLRLSCAASGFTFSSFGMHWVRQAPGKGLEWVSYISSGSSIIYYADSVKGRFTISRDNAKNSLYLQMNSLRAEDTAVYYCARGGRVVWSPDYWGQGTLVTVSS
VL: DIVMTQSPDSLAVSLGERATINCKSSQSLLNSGNQKNYLTWYQQKPGQPPKLLIYWASTRESGVPDRFTGSGSGTDFTLTISSLQAEDVAVYYCQNDYSYPFTFGSGTKLEIKR
notes: also called VH-L110V; Kabat 98
B2: H1.146_L1 (antibody, V domains shown)
VH: EVQLVESGGGLVQPGGSLRLSCAASGFTFSSFGMHWVRQAPGKGLEWVSYISSGSSIIYYADSVKGRFTISRDNAKNSLYLQMNSLRAEDTAVYYCARGGRLYWSPDYWGQGTLVTVSS
VL: DIVMTQSPDSLAVSLGERATINCKSSQSLLNSGNQKNYLTWYQQKPGQPPKLLIYWASTRESGVPDRFTGSGSGTDFTLTISSLQAEDVAVYYCQNDYSYPFTFGSGTKLEIKR
notes: also called VH-V111Y; Kabat 99
B3: H1.143_L1 (antibody, V domains shown)
VH: EVQLVESGGGLVQPGGSLRLSCAASGFTFSSFGMHWVRQAPGKGLEWVSYISSGSSIIYYADSVKGRFTISRDNAKNSLYLQMNSLRAEDTAVYYCARGGRLIWSPDYWGQGTLVTVSS
VL: DIVMTQSPDSLAVSLGERATINCKSSQSLLNSGNQKNYLTWYQQKPGQPPKLLIYWASTRESGVPDRFTGSGSGTDFTLTISSLQAEDVAVYYCQNDYSYPFTFGSGTKLEIKR
notes: also called VH-V111I; Kabat 99
B4: H1.142_L1 (antibody, V domains shown)
VH: EVQLVESGGGLVQPGGSLRLSCAASGFTFSSFGMHWVRQAPGKGLEWVSYISSGSSIIYYADSVKGRFTISRDNAKNSLYLQMNSLRAEDTAVYYCARGGRLTWSPDYWGQGTLVTVSS
VL: DIVMTQSPDSLAVSLGERATINCKSSQSLLNSGNQKNYLTWYQQKPGQPPKLLIYWASTRESGVPDRFTGSGSGTDFTLTISSLQAEDVAVYYCQNDYSYPFTFGSGTKLEIKR
notes: also called VH-V111T; Kabat 99
B5: H1.145_L1 (antibody, V domains shown)
VH: EVQLVESGGGLVQPGGSLRLSCAASGFTFSSFGMHWVRQAPGKGLEWVSYISSGSSIIYYADSVKGRFTISRDNAKNSLYLQMNSLRAEDTAVYYCARGGRLAWSPDYWGQGTLVTVSS
VL: DIVMTQSPDSLAVSLGERATINCKSSQSLLNSGNQKNYLTWYQQKPGQPPKLLIYWASTRESGVPDRFTGSGSGTDFTLTISSLQAEDVAVYYCQNDYSYPFTFGSGTKLEIKR
notes: also called VH-V111A; Kabat 99
B6: H1.139_L1 (antibody, V domains shown)
VH: EVQLVESGGGLVQPGGSLRLSCAASGFTFSSFGMHWVRQAPGKGLEWVSYISSGSSIIYYADSVKGRFTISRDNAKNSLYLQMNSLRAEDTAVYYCARGGRAVWSPDYWGQGTLVTVSS
VL: DIVMTQSPDSLAVSLGERATINCKSSQSLLNSGNQKNYLTWYQQKPGQPPKLLIYWASTRESGVPDRFTGSGSGTDFTLTISSLQAEDVAVYYCQNDYSYPFTFGSGTKLEIKR
notes: also called VH-L110A; Kabat 98
B7: mAb C H1.132_L1 (antibody, V domains shown)
VH: EVQLVESGGGLVQPGGSLRLSCAASGFTFSSFGMHWVRQAPGKGLEWVSYISSGSSIIYYADSVKGRFTISRDNAKNSLYLQMNSLRAEDTAVYYCARGGWLVWSPDYWGQGTLVTVSS
VL: DIVMTQSPDSLAVSLGERATINCKSSQSLLNSGNQKNYLTWYQQKPGQPPKLLIYWASTRESGVPDRFTGSGSGTDFTLTISSLQAEDVAVYYCQNDYSYPFTFGSGTKLEIKR
notes: copies: 2 + 2
B8: H1.137_L1 (antibody, V domains shown)
VH: EVQLVESGGGLVQPGGSLRLSCAASGFTFSSFGMHWVRQAPGKGLEWVSYISSGSSIIYYADSVKGRFTISRDNAKNSLYLQMNSLRAEDTAVYYCARGGRWVWSPDYWGQGTLVTVSS
VL: DIVMTQSPDSLAVSLGERATINCKSSQSLLNSGNQKNYLTWYQQKPGQPPKLLIYWASTRESGVPDRFTGSGSGTDFTLTISSLQAEDVAVYYCQNDYSYPFTFGSGTKLEIKR
notes: also called VH-L110W; Kabat 98
B9: H1.136_L1 (antibody, V domains shown)
VH: EVQLVESGGGLVQPGGSLRLSCAASGFTFSSFGMHWVRQAPGKGLEWVSYISSGSSIIYYADSVKGRFTISRDNAKNSLYLQMNSLRAEDTAVYYCARGGRYVWSPDYWGQGTLVTVSS
VL: DIVMTQSPDSLAVSLGERATINCKSSQSLLNSGNQKNYLTWYQQKPGQPPKLLIYWASTRESGVPDRFTGSGSGTDFTLTISSLQAEDVAVYYCQNDYSYPFTFGSGTKLEIKR
notes: also called VH-L110Y; Kabat 98
B10: H1.141_L1 (antibody, V domains shown)
VH: EVQLVESGGGLVQPGGSLRLSCAASGFTFSSFGMHWVRQAPGKGLEWVSYISSGSSIIYYADSVKGRFTISRDNAKNSLYLQMNSLRAEDTAVYYCARGGRKVWSPDYWGQGTLVTVSS
VL: DIVMTQSPDSLAVSLGERATINCKSSQSLLNSGNQKNYLTWYQQKPGQPPKLLIYWASTRESGVPDRFTGSGSGTDFTLTISSLQAEDVAVYYCQNDYSYPFTFGSGTKLEIKR
notes: also called VH-L110K; Kabat 98
B11: H1.138_L1 (antibody, V domains shown)
VH: EVQLVESGGGLVQPGGSLRLSCAASGFTFSSFGMHWVRQAPGKGLEWVSYISSGSSIIYYADSVKGRFTISRDNAKNSLYLQMNSLRAEDTAVYYCARGGRDVWSPDYWGQGTLVTVSS
VL: DIVMTQSPDSLAVSLGERATINCKSSQSLLNSGNQKNYLTWYQQKPGQPPKLLIYWASTRESGVPDRFTGSGSGTDFTLTISSLQAEDVAVYYCQNDYSYPFTFGSGTKLEIKR
notes: also called VH-L110D; Kabat 98
B12: H1.144_L1 (antibody, V domains shown)
VH: EVQLVESGGGLVQPGGSLRLSCAASGFTFSSFGMHWVRQAPGKGLEWVSYISSGSSIIYYADSVKGRFTISRDNAKNSLYLQMNSLRAEDTAVYYCARGGRLLWSPDYWGQGTLVTVSS
VL: DIVMTQSPDSLAVSLGERATINCKSSQSLLNSGNQKNYLTWYQQKPGQPPKLLIYWASTRESGVPDRFTGSGSGTDFTLTISSLQAEDVAVYYCQNDYSYPFTFGSGTKLEIKR
notes: also called VH-V111L; Kabat 99
B13: H1_L1.22 (antibody, V domains shown)
VH: EVQLVESGGGLVQPGGSLRLSCAASGFTFSSFGMHWVRQAPGKGLEWVSYISSGSSIIYYADSVKGRFTISRDNAKNSLYLQMNSLRAEDTAVYYCARGGRLVWSPDYWGQGTLVTVSS
VL: DIVMTQSPDSLAVSLGERATINCKSSQSLLNSYNQKNYLTWYQQKPGQPPKLLIYWASTRESGVPDRFTGSGSGTDFTLTISSLQAEDVAVYYCQNDYSYPFTFGSGTKLEIKR
notes: also called VL-G33Y; Kabat 27f

The first assay deals with T1, human PD-1-His (human, UniProt Q15116 25-167, limits assumed).
T1 construct: Antigen of the Octet assays; not shown: His tag
T1 sequence (Q15116 25-167 limits assumed): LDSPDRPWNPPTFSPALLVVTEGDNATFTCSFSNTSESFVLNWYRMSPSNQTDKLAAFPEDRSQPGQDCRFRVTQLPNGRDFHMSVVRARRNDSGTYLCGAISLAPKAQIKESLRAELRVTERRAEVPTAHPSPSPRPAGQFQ
Put plainly: Octet. A general note: Biolayer interferometry detects binding as a change in optical thickness at a sensor tip.
As for B1, the Kd amounted to 46.7 nM, the koff was 0.00685 s⁻¹ and the association rate constant (kon) stood at 147000 M⁻¹ s⁻¹.

Molecule B2 yielded a Kd of 102 nM, a koff of 0.0157 s⁻¹ and an on-rate constant (kon) of 155000 M⁻¹ s⁻¹.

As to B3, binding was characterised by a dissociation constant (Kd) of 35.6 nM, the koff was found to be 0.00633 s⁻¹ and the kon was 178000 M⁻¹ s⁻¹.

Consider B4, for which the affinity, expressed as Kd, was 88 nM; the dissociation rate constant (koff) came to 0.0118 s⁻¹; the kon was 134000 M⁻¹ s⁻¹.

In turn, B5 showed an equilibrium dissociation constant (Kd) of 110 nM, an off-rate constant (koff) of 0.0177 s⁻¹ and an on-rate (kon) of 161000 M⁻¹ s⁻¹.

Take B6: the dissociation constant Kd came to 98.9 nM, the off-rate (koff) was 0.011 s⁻¹ and the association rate constant (kon) stood at 111000 M⁻¹ s⁻¹.

With B7, the affinity, expressed as Kd, was 9.63 nM; the koff is 0.00218 s⁻¹; the kon came out at 227000 M⁻¹ s⁻¹.

Molecule B8 yielded a Kd of 32.6 nM, a dissociation rate constant (koff) of 0.0056 s⁻¹ and a kon of 172000 M⁻¹ s⁻¹.

Molecule B9 came in with a Kd of 54.5 nM, a koff of 0.00863 s⁻¹ and an association rate constant (kon) of 158000 M⁻¹ s⁻¹.

For B10, binding was characterised by a dissociation constant (Kd) of 118 nM, the dissociation rate constant (koff) was determined as 0.0132 s⁻¹ and the kon stood at 112000 M⁻¹ s⁻¹.

In turn, B11 yielded a dissociation constant (Kd) of 116 nM, a koff of 0.0128 s⁻¹ and a kon of 110000 M⁻¹ s⁻¹.

Turning to B12, binding was characterised by a dissociation constant (Kd) of 130 nM, the koff was 0.0174 s⁻¹ and the on-rate (kon) amounted to 134000 M⁻¹ s⁻¹.

The target of a further assay is T1, human PD-1-His. Put plainly: Octet. The source holds these as a separate data set.
For B13, the Kd is 271 nM, the off-rate constant (koff) turned out to be 0.0269 s⁻¹ and the kon stood at 99100 M⁻¹ s⁻¹.

What is called Kd is the free concentration of one partner at which half of the binding sites on the other are occupied at equilibrium, for simple one-to-one binding. A higher Kd goes with weaker binding. For orientation: koff means the rate constant with which the complex falls apart. Low values mean slow dissociation, high ones fast dissociation. In general, kon refers to the second-order rate constant of association. Read a low kon as slower complex formation.
